B1: OR4K15 (parent)
chain: GUUAACGGUCAUAGGCCAUGGAAACUAGGAGCACCAUUUCGCUGCCAGUGAAGAAAUGAACAAAGAAAAUCUGGGCCAGGCAGGCAUCAAAAGAAAUAGUCUUGCGCUCAACCAGAAAGUCUGUAAUCAUUUUAAGGGUA

The variants in this data set derive from B1. Description: self-cleavage, relative activity (ratio to wild type); higher = more cleavage; in vitro, sequencing; the parent is a self-cleaving ribozyme.
Take GUUAACGGUCAUAGGCCAUGGAAACUAGGAGCACCAUUUCGCUGCCAGUGAAGAAAUGAGCAAAGAAAAUCUGGGCCAGGCAGGCAUCAAAAGAAAUAGUCUUGCGCUCAACCAGAAAGUCUGUGAUCAUUUUAAGGGUA [A60G A125G]: the self-cleavage came out at 0.69.

Regarding GUUAACGGUCAUAGGCCAUGGAAACAAGGAGCACCAUUUCGCUGCCAGUGAAGAAAUGAACAAAGAAAAUCUGGGCCAGGCAGGCAUCAAAAGAAAUAGUCUUGCGCUCAACCAGAAAGUCCGUAAUCAUUUUAAGGGUA [U26A U122C], the self-cleavage was 0.72.

In the case of GUUAACGGUCAUAGGCCAUGGAAACUAGGAGCACCAUUUCGCUGCCAGUGAAGAAAUGAACAAAGAAAAUCUGGGCCAGGCAGGCAUCUAAAGAAAUAGUCUUGCGCUCAACCAGAAAGCCUGUAAUCAUUUUAAGGGUA [A89U U120C], the self-cleavage is 0.5.

As to GUUAACGGUCAUGGGCCGUGGAAACUAGGAGCACCAUUUCGCUGCCAGUGAAGAAAUGAACAAAGAAAAUCUGGGCCAGGCAGGCAUCAAAAGAAAUAGUCUUGCGCUCAACCAGAAAGUCUGUAAUCAUUUUAAGGGUA [A13G A18G], the self-cleavage is 1.3.

Consider GUUAACGGUCAUAGGCCAUGGAAACUAGGAGCACCAUUUCGCUGCCAGUGAAGAAAUGAACAAAGAAAAUCUGGGCCAGGCAGGCAUCAAAAGAAAUGGUCUUGCGCUCAACCAGAAAGUCUGUAAUCAUUUUAAGGGUG [A98G A140G], for which the self-cleavage came out at 0.69.

As to GUUAACGGUCAUAGGCCAUGGAAACUAGGAGCACCAUUUCGCUGCCAGUGAAGAAAUGAGCAAAGAAAAUCUGGGCCAGGCAGGCAUCAAAAGAAACAGUCUUGCGCUCAACCAGAAAGUCUGUAAUCAUUUUAAGGGUA [A60G U97C], the self-cleavage is 1.05.

In the case of GUUAACGGUCAUAGGCCAUGGACACUAGGAGCACCAUCUCGCUGCCAGUGAAGAAAUGAACAAAGAAAAUCUGGGCCAGGCAGGCAUCAAAAGAAAUAGUCUUGCGCUCAACCAGAAAGUCUGUAAUCAUUUUAAGGGUA [A23C U38C], the self-cleavage is 1.73.

On to GUUAACGGUCAUAGGCUAUGGAAACUAGGAGCACCAUUUCGCUGCCAGUGAAGAAAUGAACAAAGAAAAUCUGGGCCAGGCAGGCAUCAAAAGAAAUAGUCUUGCGCUCAACCAGAAAGUCUGUAAUCAUUCUAAGGGUA [C17U U132C], for which the self-cleavage came to 1.02.

As for GUUAACGGUCAUAGGCCAUGGAAACUAGGAGCACCAUUUCGCUGCCAGUGAAGAAAUGAACAAAGAAAAUCUGGGCCAGGCAGGCUUCAAAAGAAAUAGUCUUGCGCUCAACCAGAAAGUCUGUAAUCAUUUUAUGGGUA [A86U A135U], the self-cleavage is 2.32.

As for GUUAACGGUCGUAGGCCAUGGAAACUAGAAGCACCAUUUCGCUGCCAGUGAAGAAAUGAACAAAGAAAAUCUGGGCCAGGCAGGCAUCAAAAGAAAUAGUCUUGCGCUCAACCAGAAAGUCUGUAAUCAUUUUAAGGGUA [A11G G29A], the self-cleavage was found to be 0.57.

On to GUUAACGGUCAUAGUCCAUGGAAACUAGGAGCACCAUUUCGCUGCCAGUGAAGAAGUGAACAAAGAAAAUCUGGGCCAGGCAGGCAUCAAAAGAAAUAGUCUUGCGCUCAACCAGAAAGUCUGUAAUCAUUUUAAGGGUA [G15U A56G], for which the self-cleavage came to 1.89.

Take GUUAACGGUCAUAGGCCAUGGAAACUAGGAGCACCAUUUCGCUGCCAGUGAAGAAAUGAACAAAGAAAAUCUGGGCCGGGCAGGCUUCAAAAGAAAUAGUCUUGCGCUCAACCAGAAAGUCUGUAAUCAUUUUAAGGGUA [A78G A86U]: the self-cleavage was found to be 0.1.

Consider GUUAACGGUCUUAGGCCAUGGAAACUAGGAGCACCAUUUCGCUGCCAGUGAAGAAAUGAACAAAGAAAACCUGGGCCAGGCAGGCAUCAAAAGAAAUAGUCUUGCGCUCAACCAGAAAGUCUGUAAUCAUUUUAAGGGUA [A11U U70C], for which the self-cleavage stood at 0.67.

GUUAACGGUCAUAGGCCAUGGAAACUAGGAGCACCAUUUCGCUGCCAGUGAAGAAAUGAACAAAGAAAAUCUGGGCCAGGCAGGCAUCAAAAGAAAUAGUCUUGCGCUCUACCAGAAAGUCUGUAAUCAUUCUAAGGGUA [A110U U132C]: the self-cleavage was found to be 0.71.

GUUAACGGUCAUAUGCCAUGGAAACUAGGAGCACCAUUUCGCUGCCAGUGAAGAAAUGAACAAAGAAAAUCUGGGCCAGGCAGGCAUCGAAAGAAAUAGUCUUGCGCUCAACCAGAAAGUCUGUAAUCAUUUUAAGGGUA [G14U A89G]: the self-cleavage was 1.39.

Consider GUUAACGGUCAUAGGCCAUGGAAACUAGGAGCACCAUUUCGCUGCCAGUGAAGUAAUGAACAAAGAAAAUCUGGGCCAGGCAGGCGUCAAAAGAAAUAGUCUUGCGCUCAACCAGAAAGUCUGUAAUCAUUUUAAGGGUA [A54U A86G], for which the self-cleavage stood at 0.36.

For the variant GUUAACGGUCGUAGGCCAUGGAAACUAGGAGCACCAUUUCGCUGCCAGUGAAGAAAUGAACAAAGAUAAUCUGGGCCAGGCAGGCAUCAAAAGAAAUAGUCUUGCGCUCAACCAGAAAGUCUGUAAUCAUUUUAAGGGUA [A11G A67U], the self-cleavage came out at 1.16.

For GUUAACGGUCAUAGGCCAUGGAAACUAGGAACACCAUUUCGCUGCCAGUGAAGAAAUGAACAAAGAAAAACUGGGCCAGGCAGGCAUCAAAAGAAAUAGUCUUGCGCUCAACCAGAAAGUCUGUAAUCAUUUUAAGGGUA [G31A U70A], the self-cleavage came out at 1.73.

For the variant GUUAACGGUCAUAGGCCAUGGAAACUAGGAGCACCAUUUCGCUGCCAGUGAAGAAAUGAACAAAGAAAAUCUGGGCCAGGCAGGCAUCAAAAGAAAUAGUCUUGCGCUCAACCAGAAGGUCUGUAAUCAUUUUAAGGGCA [A118G U139C], the self-cleavage was found to be 1.43.

In the case of GUUAACGGUCAUAGGCCAUGGAAACUAGGAGCACCAUUUCGCUGCCAGUGAAUAAAUGAACAAAGAAAAUCUGGGCCAGGCAGGCAUCAAAAGAAAUAGUCUUGCGCUCAACCAGAAAGUCUGUAGUCAUUUUAAGGGUA [G53U A126G], the self-cleavage amounted to 1.4.

Take GUUAACGGUCGUAGGCCAUGGAAACUAGGAGCACCAUUUCGCUGCCAGUGAAGAAAUGAACAAAGAAAAUCUGGGCCAGGCAGGCAUCAAAAGAAAUAGUCUUGCGCUCAACCAGUAAGUCUGUAAUCAUUUUAAGGGUA [A11G A116U]: the self-cleavage was determined as 0.12.

For GUUAACGGUCAUAGGCCAUGGAAACUAGGAGCACCAUUUCGCUGCCAGUGAAGAAAUGAACAAAGAAAAUCUGGGCCAGGCAGGCAUCAAAAGAAAUAGUCUUGCGCUCAACCAGAAAGUCUGAAAUCAUUUUAAGGGUG [U124A A140G], the self-cleavage turned out to be 0.65.

For GUUAACGGUCAUAGGCCAUGGAAACUAAGAGCACCAUUUCGCUGCCAGUGAAGAAAUGAACAAAGAAAAUCUGGGCCAGGCAGGCAUCAAAAGAAAUAGUCUUGCGCUCAACCAGAAAGUCUGCAAUCAUUUUAAGGGUA [G28A U124C], the self-cleavage worked out at 0.6.

As for GUUAACGGUCAUAGGCCAUGGAAACUUGGAGCACCAUUUCGCUGCCAGUGAAGAAACGAACAAAGAAAAUCUGGGCCAGGCAGGCAUCAAAAGAAAUAGUCUUGCGCUCAACCAGAAAGUCUGUAAUCAUUUUAAGGGUA [A27U U57C], the self-cleavage stood at 1.25.

For GGUAACGGUCAUAGGCCAUGGAAACUAGGAGCACCAUUUCGCUGCCAGUGAAGAAAUGAACAAAGAAAAUCUGGGCCAGGCAGGCAUCAAAAGAAAUAGUCUUGCGCUCAACCAGAAGGUCUGUAAUCAUUUUAAGGGUA [U2G A118G], the self-cleavage was 0.66.

With GUUAACGGUCAUACGCCAUGGAAACUAGGAGCACCAUUUCGCUGCCAGUGAAGAAAUGAACAAAGAAAAUCUGGGCCAGGCAGGCAUCAAAAGAAAUAGUCUUGCGCUCAACCAGAAAGUCUGUAACCAUUUUAAGGGUA [G14C U127C], the self-cleavage came out at 1.15.

GUUAACGGUCAUAGGCCAUGGAAACUAGGUGCACCAUUUCGCUGCCAGUGAAGAAAUGAACAAAGAAAAUCUGGGCCAGGCAGGCAUCAAAGGAAAUAGUCUUGCGCUCAACCAGAAAGUCUGUAAUCAUUUUAAGGGUA [A30U A92G]: the self-cleavage is 0.91.

With GUUAUCGGUCAUAGGCCAUGGAAACUAGGAGCACCAUUUCGCUGCCAGUGAAGAAAUGAACAAAGAAAAUCUGGGCCAGGCAGGCAUCAAAAGAAAUAGUCUUGCGCUCAACCAGAGAGUCUGUAAUCAUUUUAAGGGUA [A5U A117G], the self-cleavage was 1.74.

On to GUUAACGGUCAUAGGCCAUGGAAACUAGGAGCACCUUUUCGCUGCCAGUGAAGAAAUGAACAAAGAAAAUCUGGGCCAGGCAGGCAUCAAAAGAAAUAGUCUUGCGCUCAACCAGAAGGUCUGUAAUCAUUUUAAGGGUA [A36U A118G], for which the self-cleavage came out at 1.05.

Turning to GUUAACGGUCAUAGGCCAUGGAAACUAGGAGCACCAUUUCGCUGCCAGUGAAGAAAUGAACAGAGAAAAUCUGGGCCAGGCAGGCAUCAAAAGAAAUAGUCAUGCGCUCAACCAGAAAGUCUGUAAUCAUUUUAAGGGUA [A63G U102A], the self-cleavage is 1.39.

Take GUUAACGGUCAUAGGCCAUGGAAACUAGGAGCACCAUUUCGCUGCCAGAGAAGAAAUGAACAAAGAAAAUCUGGGCCAGGCAGGCAUCAAAAGAAAUAGUCUUGCGCUCAACCAGAAAGUAUGUAAUCAUUUUAAGGGUA [U49A C121A]: the self-cleavage came out at 0.95.

With GUUAACGGUCAUAGGCCAUGGAAACUAGGAGCACCAUUUCGCUGCCAGUGACGAAAUGAACAAAGAAAAUCUGGGCCAGGCAGGCAUCAAAAGAAAUAGUCUAGCGCUCAACCAGAAAGUCUGUAAUCAUUUUAAGGGUA [A52C U103A], the self-cleavage was determined as 0.98.

For the variant GUUAACGGUCAUAGGCCAUGGAAACUUGGAGCACCAUUUCGCUGCCAGUGAAGAAAUGAACAAAGAAAAUCUGGGCCAGGCAGGCAUCAAAAGAAAUAGUCUUGCGCUCAACCAGAAAGUCUGUAAUCAUUCUAAGGGUA [A27U U132C], the self-cleavage was determined as 1.39.

On to GUUAACGGUCAUAGGCCAUGGAAACUAGGAGCACCAUUUCGCUGCCAGUGAAGAGAUGAACAAAGAAAAUCUGGGCCAGGCAGGCAUCAAAAGAAAUAGUCUUGCGCUCAACCAGAAAGUCUUUAAUCAUUUUAAGGGUA [A55G G123U], for which the self-cleavage was determined as 2.01.

Take GCUAACGGUCAUAGGCCAUGGAAACGAGGAGCACCAUUUCGCUGCCAGUGAAGAAAUGAACAAAGAAAAUCUGGGCCAGGCAGGCAUCAAAAGAAAUAGUCUUGCGCUCAACCAGAAAGUCUGUAAUCAUUUUAAGGGUA [U2C U26G]: the self-cleavage came to 0.72.

Regarding GUUAACGGUCAUAGGCCAUGGAAACUAGGAGCACCAUUUCGCUGCCAGUGAAGAAAUGAACAAAGAAAAUCCGGGCCAGGCAGGCAUCAAAAGAAAUAGUCUUGCGCUCAACCAGAAAGUCUGUAAUCAUUUUAAGGGAA [U72C U139A], the self-cleavage stood at 0.24.

With GUUAACGGUCAUAGGCCAUGGAAACUAGGAGCACCACUUCGCUGCCAGUGAAGAAAUGAACAAAGAAAAUCUGGGCCAGGCAGGCAUCAAAAGAAAUAGUCUUGCGCUCAACCAGAGAGUCUGUAAUCAUUUUAAGGGUA [U37C A117G], the self-cleavage stood at 1.98.

GUUAACGGUCAUAGGCCAUGGAAACUAGGAGCACCAUUUCGCUGCCAGUGAAGAAUUGAACAAGGAAAAUCUGGGCCAGGCAGGCAUCAAAAGAAAUAGUCUUGCGCUCAACCAGAAAGUCUGUAAUCAUUUUAAGGGUA [A56U A64G]: the self-cleavage was 2.32.

Turning to GUUAACGGUCAUAGGCCAUGGAAACUAGGAGCAUCAUUUCGCUGCCAGUGAAGAGAUGAACAAAGAAAAUCUGGGCCAGGCAGGCAUCAAAAGAAAUAGUCUUGCGCUCAACCAGAAAGUCUGUAAUCAUUUUAAGGGUA [C34U A55G], the self-cleavage is 2.06.

Turning to GUUAGCGGUCAUAGGCCAUGGAAACUAGGAGCACCAUUUCGCUGCCAGUGAAGAAAUGAACAAAGAAAAUCUGGGCCAGGCAGGCAUCAAAAGAAAUAGUCUUGCGCUCAACCAGAAAGUCCGUAAUCAUUUUAAGGGUA [A5G U122C], the self-cleavage was found to be 0.91.

On to GUUAACGGCCAUAGGCCAUGGAAACUAGGAGCACCAUUUUGCUGCCAGUGAAGAAAUGAACAAAGAAAAUCUGGGCCAGGCAGGCAUCAAAAGAAAUAGUCUUGCGCUCAACCAGAAAGUCUGUAAUCAUUUUAAGGGUA [U9C C40U], for which the self-cleavage came to 1.45.

The values above are taken from the RNAGym collection of RNA variant scans (doi:10.7554/elife.90254).
